Measurements published in US20210347913A1 (published 2021).
Where a chain is given by its changes, count along the chain named.

T1: PTK7 on PTK7 positive cell line SaOS-2 (osteosarcoma) (UniProt Q13308 31-1070)
T1 chain: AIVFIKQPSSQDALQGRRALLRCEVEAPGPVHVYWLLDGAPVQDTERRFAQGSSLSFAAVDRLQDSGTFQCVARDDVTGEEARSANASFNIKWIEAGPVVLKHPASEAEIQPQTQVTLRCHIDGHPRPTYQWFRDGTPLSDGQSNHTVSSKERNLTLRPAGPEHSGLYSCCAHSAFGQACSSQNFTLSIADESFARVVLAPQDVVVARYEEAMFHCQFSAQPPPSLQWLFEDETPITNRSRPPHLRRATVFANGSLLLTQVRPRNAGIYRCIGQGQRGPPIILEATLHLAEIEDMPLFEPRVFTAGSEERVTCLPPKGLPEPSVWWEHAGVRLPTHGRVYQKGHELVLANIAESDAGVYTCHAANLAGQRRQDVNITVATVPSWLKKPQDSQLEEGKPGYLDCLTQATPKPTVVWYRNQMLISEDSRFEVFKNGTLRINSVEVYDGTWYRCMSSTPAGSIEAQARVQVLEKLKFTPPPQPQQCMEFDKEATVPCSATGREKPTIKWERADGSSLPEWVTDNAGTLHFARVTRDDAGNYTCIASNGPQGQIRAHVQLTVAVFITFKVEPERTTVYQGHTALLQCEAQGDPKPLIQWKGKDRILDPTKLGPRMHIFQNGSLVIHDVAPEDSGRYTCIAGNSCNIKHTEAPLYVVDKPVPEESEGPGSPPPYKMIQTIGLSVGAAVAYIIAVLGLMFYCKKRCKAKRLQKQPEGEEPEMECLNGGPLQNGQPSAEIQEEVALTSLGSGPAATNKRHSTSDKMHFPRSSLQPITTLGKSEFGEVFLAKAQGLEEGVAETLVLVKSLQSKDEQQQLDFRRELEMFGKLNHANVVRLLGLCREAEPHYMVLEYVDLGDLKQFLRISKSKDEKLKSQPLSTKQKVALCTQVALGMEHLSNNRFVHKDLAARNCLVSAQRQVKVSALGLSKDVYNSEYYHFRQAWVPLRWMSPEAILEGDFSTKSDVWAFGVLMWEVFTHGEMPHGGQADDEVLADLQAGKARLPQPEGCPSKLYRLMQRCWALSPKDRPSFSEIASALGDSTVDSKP

B1: 181 M8 (antibody)
chain: QGWCTIPSSMSIRLCGSSGGSGGSGGSGGGPLGLAGGSSGQVQLVESGGGVVQPGRSLRLSCAASGFTFSSYGMHWVRQAPGKGLEWVAVIWDDGSNKYYVDSVKGRFTISRDNSKNTLYLQMNSLRAEDTAVYYCARDDYYGSGSFNSYYGTDVWGQGTTVTVSSGGGGSGGGGSGGGGSEIVLTQSPATLSLSPGERATLSCRASQSVSIYLAWYQQKPGQAPRLLIYDASNRATGIPARFSGSGSGTDFTLTISSLEPEDFAVYYCQQRSNWPPFTFGPGTKVDIKSAAAFVPVFLPAKPTTTPAPRPPTPAPTIASQPLSLRPEACRPAAGGAVHTRGLDFACDIYIWAPLAGTCGVLLLSLVITLYCNHRNRSKRSRLLHSDYMNMTPRRPGPTRKHYQPYAPPRDFAAYRSRVKFSRSADAPAYQQGQNQLYNELNLGRREEYDVLDKRRGRDPEMGGKPRRKNPQEGLYNELQKDKMAEAYSEIGMKGERRRGKGHDGLYQGLSTATKDTYDALHMQALPPR
B2: 181 M3 (antibody)
chain: B1 chain with W3C, C4T, T5M, I6P, S9P, M10R, I12K, R13V, L14I
B3: 181 M4 (antibody)
chain: QGCTFPNTTMQRTFCGSSGGSGGSGGSGGGPLGLAGGSSGQVQLVESGGGVVQPGRSLRLSCAASGFTFSSYGMHWVRQAPGKGLEWVAVIWDDGSNKYYVDSVKGRFTISRDNSKNTLYLQMNSLRAEDTAVYYCARDDYYGSGSFNSYYGTDVWGQGTTVTVSSGGGGSGGGGSGGGGSEIVLTQSPATLSLSPGERATLSCRASQSVSIYLAWYQQKPGQAPRLLIYDASNRATGIPARFSGSGSGTDFTLTISSLEPEDFAVYYCQQRSNWPPFTFGPGTKVDIKSAAAFVPVFLPAKPTTTPAPRPPTPAPTIASQPLSLRPEACRPAAGGAVHTRGLDFACDIYIWAPLAGTCGVLLLSLVITLYCNHRNRSKRSRLLHSDYMNMTPRRPGPTRKHYQPYAPPRDFAAYRSRVKFSRSADAPAYQQGQNQLYNELNLGRREEYDVLDKRRGRDPEMGGKPRRKNPQEGLYNELQKDKMAEAYSEIGMKGERRRGKGHDGLYQGLSTATKDTYDALHMQALPPR

Target: T1, PTK7 on PTK7 positive cell line SaOS-2 …
Test: FACS binding SaOS-2

Row | EC50 [nM] | Binder
1 | 101 | B1
2 | 225 | B2
3 | 16.7 | B3

Target: T1, PTK7 on PTK7 positive cell line SaOS-2 …
Test: FACS binding SaOS-2; +MMP14

Row | EC50 [nM] | Binder
4 | 0.8 | B1
5 | 0.95 | B2
6 | 0.41 | B3

Target: T1, PTK7 on PTK7 positive cell line SaOS-2 …
Test: FACS binding SaOS-2; -MMP14

Row | EC50 [nM] | Binder
7 | 96.9 | B1
8 | 406 | B2
9 | 20.8 | B3
